Data published in US20210095041A1 (published 2021).
Blank lines part the entries; values can stand above or below the binder they belong to.

What was measured:
Clone #1 [1] = test: MSD-SET; Fab
Clone #20 [2] = test: MSD-SET; Fab
Clone #17 [3] = test: MSD-SET; Fab
Clone #14 [4] = test: MSD-SET; Fab
Clone #18 [5] = test: MSD-SET; Fab
Clone #13 [6] = test: MSD-SET; Fab
Clone #15 [7] = test: MSD-SET; Fab
Clone #2 = test: BLI (ForteBio Octet); IgG, monovalent
Clone #1 [8] = test: BLI (ForteBio Octet); IgG, monovalent
Clone #5 = test: BLI (ForteBio Octet); IgG, monovalent
Clone #16 = test: BLI (ForteBio Octet); IgG, monovalent
Clone #12 = test: BLI (ForteBio Octet); IgG, monovalent
Clone #19 = test: BLI (ForteBio Octet); IgG, monovalent
Clone #20 [9] = test: BLI (ForteBio Octet); IgG, monovalent
Clone #4 = test: BLI (ForteBio Octet); IgG, monovalent
Clone #7 = test: BLI (ForteBio Octet); IgG, monovalent
Clone #3 = test: BLI (ForteBio Octet); IgG, monovalent
Clone #17 [10] = test: BLI (ForteBio Octet); IgG, monovalent
Clone #11 = test: BLI (ForteBio Octet); IgG, monovalent
Clone #8 = test: BLI (ForteBio Octet); IgG, monovalent
Clone #10 = test: BLI (ForteBio Octet); IgG, monovalent
Clone #9 = test: BLI (ForteBio Octet); IgG, monovalent
Clone #6 = test: BLI (ForteBio Octet); IgG, monovalent
Clone #14 [11] = test: BLI (ForteBio Octet); IgG, monovalent
Clone #18 [12] = test: BLI (ForteBio Octet); IgG, monovalent
Clone #13 [13] = test: BLI (ForteBio Octet); IgG, monovalent
Clone #15 [14] = test: BLI (ForteBio Octet); IgG, monovalent

Kd (Clone #1 [1]): 2.1 nM
Kd (Clone #20 [2]): 0.61 nM
Kd (Clone #17 [3]): 0.099 nM
Kd (Clone #14 [4]): 0.15 nM
Kd (Clone #18 [5]): 0.038 nM
Kd (Clone #13 [6]): 0.17 nM
Kd (Clone #15 [7]): 0.38 nM
B1: Biotinylated Human CD39-His (enzyme)
chain: TQNKALPENVKYGIVLDAGSSHTSLYIYKWPAEKENDTGVVHQVEECRVKGPGISKFVQKVNEIGIYLTDCMERAREVIPRSQHQETPVYLGATAGMRLLRMESEELADRVLDVVERSLSNYPFDFQGARIITGQEEGAYGWITINYLLGKFSQKTRWFSIVPYETNNQETFGALDLGGASTQVTFVPQNQTIESPDNALQFRLYGKDYNVYTHSFLCYGKDQALWQKLAKDIQVASNEILRDPCFHPGYKKVVNVSDLYKTPCTKRFEMTLPFQQFEIQGIGNYQQCHQSILELFNTSYCPYSQCAFNGIFLPPLQGDFGAFSAFYFVMKFLNLTSEKVSQEKVTEMMKKFCAQPWEEIKTSYAGVKEKYLSEYCFSGTYILSLLLQGYHFTADSWEHIHFIGKIQGSDAGWTLGYMLNLTNMIPAEQPLSTPLSHSTYV

Kd (Clone #2): 11.6 nM
Kd (Clone #1 [8]): 8.04 nM
Kd (Clone #5): 29.6 nM
Kd (Clone #16): 3.81 nM
Kd (Clone #12): 1.38 nM
Kd (Clone #19): 28.3 nM
Kd (Clone #20 [9]): 3.89 nM
Kd (Clone #4): 3.65 nM
Kd (Clone #7): 94.3 nM
Kd (Clone #3): 3.25 nM
Kd (Clone #17 [10]): 1.14 nM
Kd (Clone #11): 14.7 nM
Kd (Clone #8): 28.3 nM
Kd (Clone #10): 37.3 nM
Kd (Clone #9): 124 nM
Kd (Clone #6): 177 nM
Kd (Clone #14 [11]): 1.25 nM
Kd (Clone #18 [12]): 0.706 nM
Kd (Clone #13 [13]): 1.19 nM
Kd (Clone #15 [14]): 1.97 nM
B2: Human CD39-His (enzyme)
chain: TQNKALPENVKYGIVLDAGSSHTSLYIYKWPAEKENDTGVVHQVEECRVKGPGISKFVQKVNEIGIYLTDCMERAREVIPRSQHQETPVYLGATAGMRLLRMESEELADRVLDVVERSLSNYPFDFQGARIITGQEEGAYGWITINYLLGKFSQKTRWFSIVPYETNNQETFGALDLGGASTQVTFVPQNQTIESPDNALQFRLYGKDYNVYTHSFLCYGKDQALWQKLAKDIQVASNEILRDPCFHPGYKKVVNVSDLYKTPCTKRFEMTLPFQQFEIQGIGNYQQCHQSILELFNTSYCPYSQCAFNGIFLPPLQGDFGAFSAFYFVMKFLNLTSEKVSQEKVTEMMKKFCAQPWEEIKTSYAGVKEKYLSEYCFSGTYILSLLLQGYHFTADSWEHIHFIGKIQGSDAGWTLGYMLNLTNMIPAEQPLSTPLSHSTYV
